Reference: PMC6146289, “Combinatorial use of disulfide bridges and native sulfur-SAD phasing for rapid structure determination of coiled-coils” (Bioscience Reports, 2018)

Target: the molecule itself
Test: SEC-MALS; oxidizing conditions: 20 mM Tris-HCl, pH 7.5, 150 mM NaCl, without DTT; S-200 10/30 column; 100 μl at 4 mg/ml injected; 10°C

B1: HsCEP135 82–144 (amino acids 82–144 of human CEP135, centrosomal protein of 135 kDa) (domain or fragment, UniProt Q66GS9 82-144, looked up)
chain: NNELYLELMKLREHSDQHVKELKTSLKKCARETADLKFLNNQYAHKLKLLEKESKAKNERIQQ
notes: coiled-coil fragment with one cysteine (Cys110) and one methionine per monomer; Under oxidizing conditions Cys110 forms a homotypic disulfide bridge between the two chains of the parallel coiled-coil dimer; Calculated molecular weight 7.71 kDa
With B1 as the protein, how does the “stoichiometry N” value read?
Its value is 2.
